Experimental data from the supplement of paper PMC9112550, “Optimization of the antimicrobial peptide Bac7 by deep mutational scanning” (BMC Biology, 2022).

Tested on: Escherichia coli TOP10
Assay: shrunken log2 fold change of peptide-encoding DNA abundance (4.5 h post-induction vs induction); higher = less antimicrobial activity (less host growth inhibition)
Details: time post-induction: 4.5 h; library: site-saturation at positions 5, 18, 19, 20
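Note: peptides expressed intracellularly from a pBAD plasmid library in pooled LB shake-flask culture, induced with 0.3% L-arabinose, DNA abundance read by NGS, three biological replicates, DESeq2 with apeglm shrinkage.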

In order of falling “shrunken log2 fold change” value:
1. RRIRGRPPRLPRPRPRPNAEPRP  2.89
2. RRIRMRPPRLPRPRPRPLAAPRP  2.64
3. RRIRKRPPRLPRPRPRPEDLPRP  1.8
4. RRIRMRPPRLPRPRPRPLMEPRP  1.68
5. RRIRMRPPRLPRPRPRPPDGPRP  1.41
6. RRIRGRPPRLPRPRPRPPPGPRP  1.36
7. RRIRMRPPRLPRPRPRPTPSPRP  1.18
8. RRIRWRPPRLPRPRPRPPPGPRP  1.08
9. RRIRARPPRLPRPRPRPPQNPRP  1.05
10. RRIRARPPRLPRPRPRPPAQPRP  1.02
11. RRIRSRPPRLPRPRPRPDAEPRP  0.984
12. RRIRVRPPRLPRPRPRPMMRPRP  0.837
13. RRIRVRPPRLPRPRPRPEDAPRP  0.801
14. RRIRKRPPRLPRPRPRPTNAPRP  0.733
15. RRIRGRPPRLPRPRPRPPRYPRP  0.701
16. RRIRWRPPRLPRPRPRPARGPRP  0.687
17. RRIRCRPPRLPRPRPRPRQRPRP  0.645
18. RRIRKRPPRLPRPRPRPGGMPRP  0.633
19. RRIRMRPPRLPRPRPRPQRSPRP  0.629
20. RRIRKRPPRLPRPRPRPTQPPRP  0.606
21. RRIRSRPPRLPRPRPRPGPGPRP  0.599
22. RRIRIRPPRLPRPRPRPTHMPRP  0.578
23. RRIRPRPPRLPRPRPRPPRSPRP  0.518
24. RRIRARPPRLPRPRPRPKRNPRP  0.487
25. RRIRGRPPRLPRPRPRPLEIPRP  0.428
26. RRIRMRPPRLPRPRPRPFCWPRP  0.421
27. RRIRTRPPRLPRPRPRPAMAPRP  0.392
28. RRIRFRPPRLPRPRPRPNMRPRP  0.386
29. RRIRLRPPRLPRPRPRPAMWPRP  0.373
30. RRIRWRPPRLPRPRPRPEIAPRP  0.355
31. RRIRPRPPRLPRPRPRPIFAPRP  0.33
32. RRIRWRPPRLPRPRPRPRFFPRP  0.326
33. RRIRERPPRLPRPRPRPRKTPRP  0.318
34. RRIRNRPPRLPRPRPRPRCQPRP  0.297
35. RRIRGRPPRLPRPRPRPRYCPRP  0.295
36. RRIRLRPPRLPRPRPRPNWRPRP  0.292
37. RRIRSRPPRLPRPRPRPNLPPRP  0.247
38. RRIRFRPPRLPRPRPRPAFQPRP  0.243
39. RRIRQRPPRLPRPRPRPERPPRP  0.223
40. RRIRPRPPRLPRPRPRPTHRPRP  0.223
41. RRIRSRPPRLPRPRPRPMRYPRP  0.215
42. RRIRMRPPRLPRPRPRPLDSPRP  0.204
43. RRIRQRPPRLPRPRPRPGMWPRP  0.191
44. RRIRSRPPRLPRPRPRPQFEPRP  0.189
45. RRIRSRPPRLPRPRPRPCETPRP  0.18
46. RRIRLRPPRLPRPRPRPWAKPRP  0.173
47. RRIRRRPPRLPRPRPRPCRTPRP  0.173
48. RRIRARPPRLPRPRPRPHTAPRP  0.172
49. RRIRERPPRLPRPRPRPAWNPRP  0.167
50. RRIRDRPPRLPRPRPRPFWDPRP  0.148
51. RRIRVRPPRLPRPRPRPGGIPRP  0.143
52. RRIRERPPRLPRPRPRPQTVPRP  0.136
53. RRIRNRPPRLPRPRPRPPAMPRP  0.124
54. RRIRVRPPRLPRPRPRPAMVPRP  0.118
55. RRIRARPPRLPRPRPRPVHNPRP  0.11
56. RRIRLRPPRLPRPRPRPKLTPRP  0.106
57. RRIRTRPPRLPRPRPRPLEHPRP  0.104
58. RRIRVRPPRLPRPRPRPTTSPRP  0.097
59. RRIRSRPPRLPRPRPRPGANPRP  0.0967
60. RRIRGRPPRLPRPRPRPMGCPRP  0.0963
61. RRIRHRPPRLPRPRPRPKAAPRP  0.0902
62. RRIRGRPPRLPRPRPRPVNKPRP  0.0892
63. RRIRKRPPRLPRPRPRPWWGPRP  0.0849
64. RRIRFRPPRLPRPRPRPNKQPRP  0.0839
65. RRIRDRPPRLPRPRPRPDDKPRP  0.0802
66. RRIRKRPPRLPRPRPRPAYCPRP  0.0801
67. RRIRPRPPRLPRPRPRPEFNPRP  0.0717
68. RRIRWRPPRLPRPRPRPDANPRP  0.0696
69. RRIRMRPPRLPRPRPRPPIDPRP  0.0677
70. RRIRYRPPRLPRPRPRPDNIPRP  0.0653
71. RRIRKRPPRLPRPRPRPWKTPRP  0.0649
72. RRIRPRPPRLPRPRPRPMSQPRP  0.0517
73. RRIRVRPPRLPRPRPRPQQQPRP  0.0503
74. RRIRRRPPRLPRPRPRPTKWPRP  0.0371
75. RRIRARPPRLPRPRPRPTQEPRP  0.0329
76. RRIRNRPPRLPRPRPRPYMIPRP  0.0323
77. RRIRWRPPRLPRPRPRPWDTPRP  0.0106
78. RRIRTRPPRLPRPRPRPMMIPRP  0.000458
79. RRIRFRPPRLPRPRPRPFRQPRP  -0.00049
80. RRIRTRPPRLPRPRPRPCTCPRP  -0.00101
81. RRIRLRPPRLPRPRPRPEEVPRP  -0.00242
82. RRIRIRPPRLPRPRPRPFDCPRP  -0.0028
83. RRIRIRPPRLPRPRPRPISRPRP  -0.0044
84. RRIRMRPPRLPRPRPRPDIRPRP  -0.00649
85. RRIRNRPPRLPRPRPRPWVDPRP  -0.00748
86. RRIRGRPPRLPRPRPRPNNQPRP  -0.011
87. RRIRKRPPRLPRPRPRPYCIPRP  -0.0175
88. RRIRIRPPRLPRPRPRPGLRPRP  -0.0223
89. RRIRTRPPRLPRPRPRPESVPRP  -0.0229
90. RRIRGRPPRLPRPRPRPYCTPRP  -0.0267
91. RRIRRRPPRLPRPRPRPFYEPRP  -0.0293
92. RRIRQRPPRLPRPRPRPHMVPRP  -0.0317
93. RRIRVRPPRLPRPRPRPLCTPRP  -0.0347
94. RRIRDRPPRLPRPRPRPCSLPRP  -0.0409
95. RRIRDRPPRLPRPRPRPIYDPRP  -0.0423
96. RRIRYRPPRLPRPRPRPCRRPRP  -0.0474
97. RRIRARPPRLPRPRPRPDFHPRP  -0.0502
98. RRIRYRPPRLPRPRPRPIDLPRP  -0.0513
99. RRIRRRPPRLPRPRPRPKYPPRP  -0.0539
100. RRIRQRPPRLPRPRPRPANSPRP  -0.0568
101. RRIRPRPPRLPRPRPRPFKAPRP  -0.0573
102. RRIRLRPPRLPRPRPRPTWKPRP  -0.06
103. RRIRCRPPRLPRPRPRPGHYPRP  -0.0646
104. RRIRHRPPRLPRPRPRPHAHPRP  -0.072
105. RRIRKRPPRLPRPRPRPSLNPRP  -0.0764
106. RRIRWRPPRLPRPRPRPDWGPRP  -0.0819
107. RRIRLRPPRLPRPRPRPFPKPRP  -0.103
108. RRIRQRPPRLPRPRPRPGITPRP  -0.103
109. RRIRTRPPRLPRPRPRPYGQPRP  -0.107
110. RRIRKRPPRLPRPRPRPHKDPRP  -0.113
111. RRIRHRPPRLPRPRPRPHANPRP  -0.124
112. RRIRARPPRLPRPRPRPKNHPRP  -0.125
113. RRIRFRPPRLPRPRPRPRDMPRP  -0.128
114. RRIRKRPPRLPRPRPRPWFIPRP  -0.131
115. RRIRPRPPRLPRPRPRPQIFPRP  -0.137
116. RRIRTRPPRLPRPRPRPLGTPRP  -0.145
117. RRIRFRPPRLPRPRPRPAHHPRP  -0.152
118. RRIRKRPPRLPRPRPRPWFLPRP  -0.157
119. RRIRFRPPRLPRPRPRPQFPPRP  -0.16
120. RRIRERPPRLPRPRPRPEIRPRP  -0.163
121. RRIRWRPPRLPRPRPRPRFMPRP  -0.17
122. RRIRLRPPRLPRPRPRPAYVPRP  -0.177
123. RRIRMRPPRLPRPRPRPECYPRP  -0.192
124. RRIRPRPPRLPRPRPRPHASPRP  -0.192
125. RRIRIRPPRLPRPRPRPDTDPRP  -0.194
126. RRIRWRPPRLPRPRPRPSGHPRP  -0.195
127. RRIRYRPPRLPRPRPRPGMGPRP  -0.195
128. RRIRHRPPRLPRPRPRPWCIPRP  -0.228
129. RRIRFRPPRLPRPRPRPLIAPRP  -0.234
130. RRIRSRPPRLPRPRPRPWWSPRP  -0.237
131. RRIRLRPPRLPRPRPRPPSFPRP  -0.244
132. RRIRIRPPRLPRPRPRPCTIPRP  -0.25
133. RRIRNRPPRLPRPRPRPSLTPRP  -0.266
134. RRIRTRPPRLPRPRPRPMDVPRP  -0.303
135. RRIRWRPPRLPRPRPRPHFTPRP  -0.306
136. RRIRPRPPRLPRPRPRPMYKPRP  -0.323
137. RRIRARPPRLPRPRPRPLFIPRP  -0.331
138. RRIRRRPPRLPRPRPRPDIKPRP  -0.374
139. RRIRPRPPRLPRPRPRPDMGPRP  -0.407
140. RRIRYRPPRLPRPRPRPSHFPRP  -0.411
141. RRIRWRPPRLPRPRPRPFLNPRP  -0.425
142. RRIRLRPPRLPRPRPRPSWLPRP  -0.532
143. RRIRERPPRLPRPRPRPLFTPRP  -0.55
144. RRIRCRPPRLPRPRPRPYMKPRP  -0.582
145. RRIRHRPPRLPRPRPRPQYIPRP  -0.621
146. RRIRWRPPRLPRPRPRPANVPRP  -0.624
147. RRIRSRPPRLPRPRPRPKYLPRP  -0.756
148. RRIRKRPPRLPRPRPRPWFHPRP  -0.838
149. RRIRCRPPRLPRPRPRPNYTPRP  -0.879
150. RRIRSRPPRLPRPRPRPCHKPRP  -1.16
